Measurements taken from patent US20260217835A1.

Molecular target: IgG4 Fc fragment SEQ ID NO: 102, no modification (Homo sapiens (Human)) [IgG part: P01861]
Test: SEC peak area ratio; coexpression of full-length heavy chain, light chain and Fc fragment

Sequence of IgG4 Fc fragment SEQ ID NO: 102, no modification (Homo sapiens (Human)) [IgG part: P01861] (P01861 other isoform, or with tags, fused parts or gaps limits assumed): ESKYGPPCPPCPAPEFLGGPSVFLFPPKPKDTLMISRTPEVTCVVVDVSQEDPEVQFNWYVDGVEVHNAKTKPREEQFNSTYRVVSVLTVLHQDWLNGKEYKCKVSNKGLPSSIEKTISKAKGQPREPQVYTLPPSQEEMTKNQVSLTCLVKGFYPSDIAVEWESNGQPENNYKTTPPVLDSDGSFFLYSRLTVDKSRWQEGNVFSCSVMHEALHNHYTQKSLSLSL

Heteromultimer (%): 4.6%
Substance: IgG4 full-length heavy chain SEQ ID NO: 110 with Q347E/S354Y/T366Y/Y407T, expressed with light chain SEQ ID NO: 61 (antibody)
